Reference: the DeepSol protein solubility set

Assay: soluble on expression in E. coli; label from the status in PepcDB or PDB records
In the case of “MTPVQIAAVVVTYESSSTIDACLSRLRAAEGISEIRVVDNASSDDTLEVVQRHALADARLHFIANPDNPGFATACNQGARDSQAPWLVFINPDLMIARDTLLQLYHRAAGHPAVLLGVEQVDEQGRPDAAVRRRDPDFAAMLRAPRAAANLAVPADPSRALQPVDAISGALMLMQRSLFDRLDGWDGSYRLHAEDLDLCRRARQAGALVAVANDLHVLHVRGVSSRARPFFVEWHKHRGLWRYFRKFEADRRGLLTRLGVWLAIWSHAAAQVPRLLQNKLEHHHHHH”, the “soluble on expression in E. coli” value is reported as “not soluble”.
In the case of “MAHHHHHHMTPTSAITTSAPATATTAEQTPLPPEQTSMFDAPGTPTPAVSAASARATGAQDSSTLMEGAKTETTKQNLAMKGLDRWMKMQLPADWMECIRQNLQLDKHGQPMHAVTEMKDAIPLLITPLTGDVKFFPYFVCSMDVAVRYHYVIQNERDPDTTAVIDDLQRRFGNSGRLLVVRNRYNRGYSGSMNQAFEWALKERTAEEVPWVFACGVDAIFEPGLLAKMIEVVQQNTRGDAAMLAALRAEVELEERLVREGNYSYYERWAPRGRPLKVLRSGYPGVPLNVRTAPLLPDRIRYTVADENRESGIVRPAELRTRFFGNYVATVTPVPDALGTIAVTRLALSAVGYFDENYFPAYMDDIDLRWRHFAYGFGALHGERNGPVTRWHHYNAANLRGSPFVDPDLEKYGTEDNYSRRAFLSYIRRSKGIYDKLKYGPRDMDGVWRQAAQKAEFKYSSFNVSHYPADTWVLDEDARGCMFHHTYNYKTQNWSRPSDCSYNPRTLEESGILGVDQLASYRSMLAEKAFAYQ”, the “soluble on expression in E. coli” value is reported as “not soluble”.
In the case of “MSLAVFAARKWKYNEDKMMTIVRIDAEARWSDVVIHNNTLYYTGVPENLDADAFEQTANTLAQIDAVLEKQGSNKSSILDATIFLADKNDFAAMNKAWDAWVVAGHAPVRCTVQAGLMNPKYKVEIKIVAAVEGHHHHHH”, the “soluble on expression in E. coli” value is reported as “soluble”.
With “MGSDKIHHHHHHMAGTCGLTLGKYAPLHKGHQLVIETALAEMDEVLVMIYECPEVTAIPLTVRANWLRKIYPQILVIEAWDGPTEVGDTSEIKKMHEDYILKQLESKKITHFYCSEFYGEHVSQALGAVNRLVDCDRKTFPISGTQVRTDTYAMREYLHPDVYRDLIANIVFLGAPSTGKTTIASQLAKEYNTVWMPEYGREYWEKNQINRRLSLLQLVEIAKGHLEREEALLLQANQYLFTDTNALTTYQFSLYYHKTVAPELVQLAHQAMSRYDLVFLCDLDIPYDDTWDRSGEANRSIFQKQIESDLIVRKIPFFRLSGDLMTRISIVKKVLYYYQKYASLGELFFNKLIL” the “soluble on expression in E. coli” value was “not soluble”.
In the case of “MAHHHHHHSLITTYKTITSSTQAEFKDKGSRFIAFAYPIRTLADVKKYLDPLKEEHHKARHWCYAYRLGVDGMQFRANDDGEPSGSAGRPILGQIDSVGITDVLVVVVRYFGGTLLGVPGLIHAYKEATAQALAVAEVVEKNIEKTVWLKCEYPFLNEAIRIAKQYQADILERDLQLDCRLTVSLSLVNYEACVAAWKNTRQIEVNTEKPFEEG”, the “soluble on expression in E. coli” value is reported as “soluble”.
For “MGSDKIHHHHHHGKKKPPPPKSASKMGPPPPAPAPPTAPEAAPAAPTPDAAAAAPAEGEKKDGEKKSEKKDGDKKEEEKKDEEKKDGDKKEDDKKDEKKDEDKKDEKKDADEKKDEEKKDDKKDEKKDEKKDEKKDEKKEKSKKSKKSSKSKKSKKSKREKKDEEKKEDDKKEDDKKDDKKEDEKKDDDKKDDEKNYFW”, the “soluble on expression in E. coli” value was “not soluble”.
For “MMRRGGQHLSPDPIGLGGGIQPQSYVHNPLEWVDPLGLTESGCKQPNSPENSQKPEVKKPNISTKIHDGAQGKHIEGHNNYVEGKSVIDAKPQELLDNYHAGNVNTSRVINENKIKVDFGDVNGTHKDMNGTNTSTSWGLIHSRKNGAHIVPALPDTILEHHHHHH”, the “soluble on expression in E. coli” value was “not soluble”.
With “SEKYNSLSDFLKEFYIPTYVLSAETEEEEEEESRPTPASPVLVFINSKSGGQLGGELILTYRSLLNHNQVFDLDQETPDKVLRRIYLNLERLKDDDFARQIREKLKIIVAGGDGTAGWLLGVVCDLKLSHPPPIATVPLGTGNNLPFAFGWGKKNPGTDRTAVESFLEQVLKAKVMKIDNWHILMRMKTPKEGGSCDPVAPLELPHSLHAFHRVSPTDELNKEGCHTFRGGFWNYFSLGMDAQISYAFHSERKLHPEKFKNQLVNQSTYVKLGCTQGWFCASLFHPASRNIAQLAKVKIATRNGQWQDLHIPHSIRSIVCLNLPSFSGGLNPWGTPNPRKQRDRGLTPPFVDDGLIEVVGFRNAWHGLVLLAPNGHGTRLAQANRIRFEFHKGATDHTFMRMDGEPWKQPLPLDDETVMVEISHLGQVNMLATHDCRSRSVFDPSTPRHQDGAEDYDDNEDDSVAEGEEFRKFGAADTFKIPDEVDISQLS” the “soluble on expression in E. coli” value was “soluble”.
In the case of “MKQHILVLEDANQRRTIILDEQQYSIGRHSGTSIQIHSRQASRHHATLMRKTNSKTNEECFWIIDGDLEGNKSQNGVFVNGEKRLIHELKNGDLINFGCSINALEHHHHHH”, the “soluble on expression in E. coli” value is reported as “not soluble”.
With “MGSDKIHHHHHHMAFNIDGSGNKSGVRSNMLSENNILKYGSNFSKANASSLNNKINSLNYTVEYINNELMGIFFRQGLKFGIFKAVEDFRPTISELITILGYPNEEFVEKYIKTAVSLNLLNLNEEERLELNSDFIYSSIHPEYDKIISDHVSRYDFMSGLVQYAFIGYDHPEILLNFKKDADIWDMMLNTKYMKTCREVISEYLDIKNGDTILEVGCGSRSPLYFASKVAPNGEYVGVDISKKLIRVAQGRLKRSGIECAKLKALDFSETIAKNKHDYVLCIHTLSYADSLKLFLKKMMGSLRKGGKLVIMEEFFTENINTNAELFEFYNHLNKYFKNYVSKTEILKELELIGIDYKYELLGDNCIVVERI” the “soluble on expression in E. coli” value was “not soluble”.
With “MVQHLTAEEIIQYISDAKKSTPIKVYLNGNFEGITYPESFKVFGSEQSKVIFCEADDWKPFYEAYGSQFEDIEIEMDRRNSAIPLKDLTNTNARIEPGAFIREQAIIEDGAVVMMGATINIGAVVGEGTMIDMNATLGGRATTGKNVHVGAGAVLAGVIEPPSASPVIIEDDVLIGANAVILEGVRVGKGAIVAAGAIVTQDVPAGAVVAGTPAKVIKQASEVQDTKKEIVAALRKLND” the “soluble on expression in E. coli” value was “not soluble”.
With “MPTPPAASSLAAQMGESPAPLYARVKHMIALQIQNGTWPPHHRVPSESELVTQLGFSRMTINRALRELTVEGLLVRMQGVGTFVAEPKSQSALFEVHNIADEIAARGHRHTCKVMVLKEEAAGSERALALDMREGQRVFHSLIVHFENDIPVQIEDRFVNAQVAPDYLKQDFTLQTPYAYLSQVAPLTEGEHVVEAILAEADECKLLQIDAGEPCLLIRRRTWSGRQPVTAARLIHPGSRHRLEGRFTK” the “soluble on expression in E. coli” value was “not soluble”.
With “MGSDKIHHHHHHMQTLEQLTSPEHSAWITLSQWIDNARNHCEVIKKDQSSAERELFTMQMPTSSPMGAVIYETGGILIHYGWLRILGSGSFKLPRGLMDWNFSKSFSESGEKPKYLLVADDVIGGYFALNGGSLGNNIGKIYYYSSKDLTWHNLNFTYTEFLAWVLNGDVEAFYQGLFWKNWQDDVKQLDGNQVFVFTPDLNQDRKIAIDERQKQEVNIETHYQANFAEKNKFDLAYSVA” the “soluble on expression in E. coli” value was “not soluble”.
In the case of “METFHWKVRPDMNVVSEPKVVTVKLGDGYEQRRAAGLNNQLSTYSVTIRVRKGEHPSLKAFLERHGGVRAFQWTPPYDWKLIRVVCRKWSASVGALWVTVTADFEQVVN”, the “soluble on expression in E. coli” value is reported as “not soluble”.
For “MMPYILVFMVCIFLTSISSRKKIIPLLLSCLILSLFAGFRDKNIGSDTDFYPHWYISEIRYIHNLIDLITIETERNLDKGYLFLYWIASWIGNQ”, the “soluble on expression in E. coli” value was “not soluble”.
In the case of “RYSHSLGVYELLRRILNTPAFAPIDENKKQTVLVAGLLHDIGHAPHSHAFEIYFAKAPNFKKELFIHEEVTTLFVNSEPIKSILKANQIDPKLVAALIDENKELKPSNYWMRQLISSDLDADRMDYLLRD”, the “soluble on expression in E. coli” value is reported as “not soluble”.
For “MAHHHHHHMQWKKDDLFEGLRKLPRTPGELFGHRNKLNFILQKRFFIAPDMVELALNRQNGEQFNRCYAKLVMQAVAKFNNTTRSQLKVRVDPRLPKGLQLIQPDDKDTGANLKSKKSEKAASGRLNAFSNTTSGQQRKPQQRQQSRYCSPQSGGVSPRVVMPIDPAERDCLYATYLRARTPQSGTPDYSDMMLQSPSCATDGKTTMFSEDGSSALRSATRRSAGDVHFATPPVFKGFERTLELTPADSPTESLPLHF”, the “soluble on expression in E. coli” value was “not soluble”.
